“Also recorded” adds a separate entry of the source.
Tests used:
[1] = system: histone H4 (H4K5, H4K12); settings: cited from earlier work; for enhancement of enzymatic activity of Hat1p: by facilitating H4 association with Hat1p; for enhancement of enzymatic activity of Hat1p / acetylation site specificity on H4 (literature): ref Parthun et al. 1996; for acetylation site specificity on H4 (literature): in vitro, complex purified from yeast extracts or recombinant yeast Hat1p
[2] = system: histone H4 (H4K5, H4K12); settings: no ref printed in the sentence; cited from earlier work
[3] = system: hat1Δ yeast; assay: DNA damage sensitivity assay; format: cell-based; settings: synthetic medium in the absence or presence of methyl methane sulfonate (MMS); H3K9,14R allele as sole H3; Supplemental Fig. S4
[4] = system: histone H4 in nucleosomes; settings: ref Kleff et al. 1995; Parthun et al. 1996; cited from earlier work

Molecule	enhancement of enzymatic activity of Hat1p [1]	acetylation site specificity on H4 (literature) [1]	other results
Hat2p: WD40 repeat protein, binding partner of Hat1p (protein, left off: 6xHis, N-terminal, kept) MENQEKPLSVDEEYDLWKSNVPLMYDFVSETRLTWPSLTVQWLPTPVQELDGGFIKQELIIGTHTSGEEENYLKFAEINLPKEILSNEDPQEEAGEEYQSSLPAPRSNIRITAKYEHEEEITRARYMPQDPNIVATINGQGTVFLYSRSEGLQSTLKFHKDNGYALSFSTLVKGRLLSGSDDHTVALWEVGSGGDPTKPVRTWNDLHSDIINDNKWHNFNKDLFGTVSEDSLLKINDVRANNTTIDTVKCPQPFNTLAFSHHSSNLLAAAGMDSYVYLYDLRNMKEPLHHMSGHEDAVNNLEFSTHVDGVVVSSGSDNRLMMWDLKQIGAEQTPDDAEDGVPELIMVHAGHRSSVNDFDLNPQIPWLVASAEEENILQVWKCSHSLPIVGGPPKVNKDIIS	significantly enhanced the enzymatic activity of Hat1p		
RbAp46: human homolog of Hat2p, retinoblastoma-binding protein (protein, UniProt Q16576 2-425, looked up) Histone-binding protein RBBP7: ASKEMFEDTVEERVINEEYKIWKKNTPFLYDLVMTHALQWPSLTVQWLPEVTKPEGKDYALHWLVLGTHTSDEQNHLVVARVHIPNDDAQFDASHCDSDKGEFGGFGSVTGKIECEIKINHEGEVNRARYMPQNPHIIATKTPSSDVLVFDYTKHPAKPDPSGECNPDLRLRGHQKEGYGLSWNSNLSGHLLSASDDHTVCLWDINAGPKEGKIVDAKAIFTGHSAVVEDVAWHLLHESLFGSVADDQKLMIWDTRSNTTSKPSHLVDAHTAEVNCLSFNPYSEFILATGSADKTVALWDLRNLKLKLHTFESHKDEIFQVHWSPHNETILASSGTDRRLNVWDLSKIGEEQSAEDAEDGPPELLFIHGGHTAKISDFSWNPNEPWVICSVSEDNIMQIWQMAENIYNDEESDVTTSELEGQGS	significantly enhanced the enzymatic activity of Hat1p		
recombinant human: recombinant human Hat1 (protein, UniProt O14929 2-419, looked up) Histone acetyltransferase …: AGFGAMEKFLVEYKSAVEKKLAEYKCNTNTAIELKLVRFPEDLENDIRTFFPEYTHQLFGDDETAFGYKGLKILLYYIAGSLSTMFRVEYASKVDENFDCVEADDVEGKIRQIIPPGFCTNTNDFLSLLEKEVDFKPFGTLLHTYSVLSPTGGENFTFQIYKADMTCRGFREYHERLQTFLMWFIETASFIDVDDERWHYFLVFEKYNKDGATLFATVGYMTVYNYYVYPDKTRPRVSQMLILTPFQGQGHGAQLLETVHRYYTEFPTVLDITAEDPSKSYVKLRDFVLVKLCQDLPCFSREKLMQGFNEDMVIEAQQKFKINKQHARRVYEILRLLVTDMSDAEQYRSYRLDIKRRLISPYKKKQRDLAKMRKCLRPEELTNQMNQIEISMQHEQLEESFQELVEDYRRVIERLAQE			acetylation of H4K5 and H4K12 (recombinant human Hat1, literature) [2]: can acetylate both H4K5 and H4K12
W197E (protein, left off: GST (from the vector pGEX6p-1), end not stated, cleaved) MSANDFKPETWTSSANEALRVSIVGENAVQFSPLFTYPIYGDSEKIYGYKDLIIHLAFDSVTFKPYVNVKYSAKLGDDNIVDVEKKLLSFLPKDDVIVRDEAKWVDCFAEERKTHNLSDVFEKVSEYSLNGEEFVVYKSSLVDDFARRMHRRVQIFSLLFIEAANYIDETDPSWQIYWLLNKKTKELIGFVTTYKYEHYLGAKSFDEDIDKKFRAKISQFLIFPPYQNKGHGSCLYEAIIQSWLEDKSITEITVEDPNEAFDDLRDRNDIQRLRKLGYDAVFQKHSDLSDEFLESSRKSLKLEERQFNRLVEMLLLLNNS			complementation of DNA damage sensitivity in hat1Δ yeast [3]: able to complement the DNA damage sensitivity in the hat1Δ yeast
Hat1p/Hat2p complex: yeast histone acetyltransferase complex Hat1p/Hat2p (protein, left off: 6xHis, N-terminal, state not stated) chain 1: MSANDFKPETWTSSANEALRVSIVGENAVQFSPLFTYPIYGDSEKIYGYKDLIIHLAFDSVTFKPYVNVKYSAKLGDDNIVDVEKKLLSFLPKDDVIVRDEAKWVDCFAEERKTHNLSDVFEKVSEYSLNGEEFVVYKSSLVDDFARRMHRRVQIFSLLFIEAANYIDETDPSWQIYWLLNKKTKELIGFVTTYKYWHYLGAKSFDEDIDKKFRAKISQFLIFPPYQNKGHGSCLYEAIIQSWLEDKSITEITVEDPNEAFDDLRDRNDIQRLRKLGYDAVFQKHSDLSDEFLESSRKSLKLEERQFNRLVEMLLLLNNS chain 2: MENQEKPLSVDEEYDLWKSNVPLMYDFVSETRLTWPSLTVQWLPTPVQELDGGFIKQELIIGTHTSGEEENYLKFAEINLPKEILSNEDPQEEAGEEYQSSLPAPRSNIRITAKYEHEEEITRARYMPQDPNIVATINGQGTVFLYSRSEGLQSTLKFHKDNGYALSFSTLVKGRLLSGSDDHTVALWEVGSGGDPTKPVRTWNDLHSDIINDNKWHNFNKDLFGTVSEDSLLKINDVRANNTTIDTVKCPQPFNTLAFSHHSSNLLAAAGMDSYVYLYDLRNMKEPLHHMSGHEDAVNNLEFSTHVDGVVVSSGSDNRLMMWDLKQIGAEQTPDDAEDGVPELIMVHAGHRSSVNDFDLNPQIPWLVASAEEENILQVWKCSHSLPIVGGPPKVNKDIIS		specifically acetylated H4K12 residue; also recorded: highly specific for H4K12	
Hat1p: yeast Hat1p (1–320), type B histone acetyltransferase (protein) MSANDFKPETWTSSANEALRVSIVGENAVQFSPLFTYPIYGDSEKIYGYKDLIIHLAFDSVTFKPYVNVKYSAKLGDDNIVDVEKKLLSFLPKDDVIVRDEAKWVDCFAEERKTHNLSDVFEKVSEYSLNGEEFVVYKSSLVDDFARRMHRRVQIFSLLFIEAANYIDETDPSWQIYWLLNKKTKELIGFVTTYKYWHYLGAKSFDEDIDKKFRAKISQFLIFPPYQNKGHGSCLYEAIIQSWLEDKSITEITVEDPNEAFDDLRDRNDIQRLRKLGYDAVFQKHSDLSDEFLESSRKSLKLEERQFNRLVEMLLLLNNS		not only able to acetylate H4K12 but also exhibited low activity to H4K5; also recorded: acetylated both H4K5 and H4K12 in vitro	acetylation of histone H4 in nucleosomes [4]: cannot acetylate histone H4 in nucleosomes; acetylation of H4K5 and H4K12 (recombinant yeast Hat1, literature) ([1]; recombinant yeast Hat1, no ref printed in the sentence): can acetylate both H4K5 and H4K12
